Test results reported in patent publication US20200319204A1.
Values belong to the substance of their own block, whether it stands above or below them.

Tests used:
[1] = target: unmodified nucleosome (internal standard) (human) (UniProt Q71DI3); assay: ICeChIP-qPCR, capture of barcoded nucleosome standards doped into mESC nucleosomes
[2] = target: semisynthetic H3K36me3 nucleosome (internal standard) (human) (UniProt Q71DI3); assay: as above
[3] = target: semisynthetic H3K4me3 nucleosome (internal standard ladder) (human) (UniProt Q71DI3); assay: as above
[4] = target: semisynthetic H3K27me3 nucleosome (internal standard ladder) (human) (UniProt Q71DI3); assay: multi-standard ICeChIP-seq, six nucleosome ladders doped equimolar into mESC nuclei
[5] = target: semisynthetic H3K9me3 nucleosome (internal standard ladder) (human) (UniProt Q71DI3); assay: as above

enrichment (internal standard, ICeChIP-qPCR) [1]: 1.9
enrichment (internal standard, ICeChIP-qPCR) [2]: 2.8
apparent specificity (on target signal against H3K36me3 nucleosome) [3]: 30 fold
enrichment (internal standard, ICeChIP-qPCR) [3]: 81
Substance: H3K4me3 antibody (Active Motif AM39159)

percent of the on-target signal [4]: 10%
Substance: H3K9me3 antibody M309M3-A (Hattori et al., 2013)

percent of the on-target signal [5]: 26%
Substance: H3K27me3 antibody (Millipore 07-449)
